*1 amine or outer side, *2 acyl side, *3 side chain or, on linkers, in order; H or OH if unused. Where no end group is shown, it is not given here. Side-chain parts run from the residue outwards. The star is where a group is joined. C18 diacid = O=C(O)CCCCCCCCCCCCCCCCC(=O)*; γGlu = O=C(O)[C@H](CCC(=O)[*:2])N[*:1]; Stearoyl = CCCCCCCCCCCCCCCCCC(=O)*; AEEA = NCCOCCOCC(=O)O

Results on 7 molecules are retold here after patent US20220298218A1 (ANTAG THERAPEUTICS, published 2022).

B1: AT546 (peptide)
peptide: EGTFISDYSIAMDKIK([AEEA-AEEA-γGlu-Stearoyl])QQDFVNWLLAQKGKKNDW-OH
modifications: N-terminus assumed
SMILES: CCCCCCCCCCCCCCCCCC(=O)N[C@@H](CCC(=O)NCCOCCOCC(=O)NCCOCCOCC(=O)NCCCC[C@H](NC(=O)[C@@H](NC(=O)[C@H](CCCCN)NC(=O)[C@H](CC(=O)O)NC(=O)[C@H](CCSC)NC(=O)[C@H](C)NC(=O)[C@@H](NC(=O)[C@H](CO)NC(=O)[C@H](Cc1ccc(O)cc1)NC(=O)[C@H](CC(=O)O)NC(=O)[C@H](CO)NC(=O)[C@@H](NC(=O)[C@H](Cc1ccccc1)NC(=O)[C@@H](NC(=O)CNC(=O)[C@@H](N)CCC(=O)O)[C@@H](C)O)[C@@H](C)CC)[C@@H](C)CC)[C@@H](C)CC)C(=O)N[C@@H](CCC(N)=O)C(=O)N[C@@H](CCC(N)=O)C(=O)N[C@@H](CC(=O)O)C(=O)N[C@@H](Cc1ccccc1)C(=O)N[C@H](C(=O)N[C@@H](CC(N)=O)C(=O)N[C@@H](Cc1c[nH]c2ccccc12)C(=O)N[C@@H](CC(C)C)C(=O)N[C@@H](CC(C)C)C(=O)N[C@@H](C)C(=O)N[C@@H](CCC(N)=O)C(=O)N[C@@H](CCCCN)C(=O)NCC(=O)N[C@@H](CCCCN)C(=O)N[C@@H](CCCCN)C(=O)N[C@@H](CC(N)=O)C(=O)N[C@@H](CC(=O)O)C(=O)N[C@@H](Cc1c[nH]c2ccccc12)C(=O)O)C(C)C)C(=O)O
B2: AT548 (peptide)
peptide: EGTFISDYSIAMDKIHQK([AEEA-AEEA-γGlu-C18 diacid])DFVNWLLAQKGKKNDW-OH
modifications: N-terminus assumed
SMILES: CC[C@H](C)[C@H](NC(=O)[C@H](CO)NC(=O)[C@H](Cc1ccc(O)cc1)NC(=O)[C@H](CC(=O)O)NC(=O)[C@H](CO)NC(=O)[C@@H](NC(=O)[C@H](Cc1ccccc1)NC(=O)[C@@H](NC(=O)CNC(=O)[C@@H](N)CCC(=O)O)[C@@H](C)O)[C@@H](C)CC)C(=O)N[C@@H](C)C(=O)N[C@@H](CCSC)C(=O)N[C@@H](CC(=O)O)C(=O)N[C@@H](CCCCN)C(=O)N[C@H](C(=O)N[C@@H](Cc1c[nH]cn1)C(=O)N[C@@H](CCC(N)=O)C(=O)N[C@@H](CCCCNC(=O)COCCOCCNC(=O)COCCOCCNC(=O)CC[C@H](NC(=O)CCCCCCCCCCCCCCCCC(=O)O)C(=O)O)C(=O)N[C@@H](CC(=O)O)C(=O)N[C@@H](Cc1ccccc1)C(=O)N[C@H](C(=O)N[C@@H](CC(N)=O)C(=O)N[C@@H](Cc1c[nH]c2ccccc12)C(=O)N[C@@H](CC(C)C)C(=O)N[C@@H](CC(C)C)C(=O)N[C@@H](C)C(=O)N[C@@H](CCC(N)=O)C(=O)N[C@@H](CCCCN)C(=O)NCC(=O)N[C@@H](CCCCN)C(=O)N[C@@H](CCCCN)C(=O)N[C@@H](CC(N)=O)C(=O)N[C@@H](CC(=O)O)C(=O)N[C@@H](Cc1c[nH]c2ccccc12)C(=O)O)C(C)C)[C@@H](C)CC
B3: AT562 (peptide)
peptide: TFISDYSK([AEEA-AEEA-γGlu-C18 diacid])AMDKIHQQDFVNWLLAQKGKKNDW-OH
modifications: N-terminus assumed
SMILES: CC[C@H](C)[C@H](NC(=O)[C@H](CCCCN)NC(=O)[C@H](CC(=O)O)NC(=O)[C@H](CCSC)NC(=O)[C@H](C)NC(=O)[C@H](CCCCNC(=O)COCCOCCNC(=O)COCCOCCNC(=O)CC[C@H](NC(=O)CCCCCCCCCCCCCCCCC(=O)O)C(=O)O)NC(=O)[C@H](CO)NC(=O)[C@H](Cc1ccc(O)cc1)NC(=O)[C@H](CC(=O)O)NC(=O)[C@H](CO)NC(=O)[C@@H](NC(=O)[C@H](Cc1ccccc1)NC(=O)[C@@H](N)[C@@H](C)O)[C@@H](C)CC)C(=O)N[C@@H](Cc1c[nH]cn1)C(=O)N[C@@H](CCC(N)=O)C(=O)N[C@@H](CCC(N)=O)C(=O)N[C@@H](CC(=O)O)C(=O)N[C@@H](Cc1ccccc1)C(=O)N[C@H](C(=O)N[C@@H](CC(N)=O)C(=O)N[C@@H](Cc1c[nH]c2ccccc12)C(=O)N[C@@H](CC(C)C)C(=O)N[C@@H](CC(C)C)C(=O)N[C@@H](C)C(=O)N[C@@H](CCC(N)=O)C(=O)N[C@@H](CCCCN)C(=O)NCC(=O)N[C@@H](CCCCN)C(=O)N[C@@H](CCCCN)C(=O)N[C@@H](CC(N)=O)C(=O)N[C@@H](CC(=O)O)C(=O)N[C@@H](Cc1c[nH]c2ccccc12)C(=O)O)C(C)C
B4: AT547 (peptide)
peptide: EGTFISDYSIAMDKIKQQDFVNWLLAQKGKKNDW
HELM: PEPTIDE1{E.G.T.F.I.S.D.Y.S.I.A.M.D.K.I.K.Q.Q.D.F.V.N.W.L.L.A.Q.K.G.K.K.N.D.W}|PEPTIDE2{[CCCCCCCCCCCCCCCCCC(=O)[*:2]].[gGlu].[gGlu]}$PEPTIDE1,PEPTIDE2,16:R3-3:R2$$$V2.0; N-terminus assumed
SMILES: CCCCCCCCCCCCCCCCCC(=O)N[C@@H](CCC(=O)N[C@@H](CCC(=O)NCCCC[C@H](NC(=O)[C@@H](NC(=O)[C@H](CCCCN)NC(=O)[C@H](CC(=O)O)NC(=O)[C@H](CCSC)NC(=O)[C@H](C)NC(=O)[C@@H](NC(=O)[C@H](CO)NC(=O)[C@H](Cc1ccc(O)cc1)NC(=O)[C@H](CC(=O)O)NC(=O)[C@H](CO)NC(=O)[C@@H](NC(=O)[C@H](Cc1ccccc1)NC(=O)[C@@H](NC(=O)CNC(=O)[C@@H](N)CCC(=O)O)[C@@H](C)O)[C@@H](C)CC)[C@@H](C)CC)[C@@H](C)CC)C(=O)N[C@@H](CCC(N)=O)C(=O)N[C@@H](CCC(N)=O)C(=O)N[C@@H](CC(=O)O)C(=O)N[C@@H](Cc1ccccc1)C(=O)N[C@H](C(=O)N[C@@H](CC(N)=O)C(=O)N[C@@H](Cc1c[nH]c2ccccc12)C(=O)N[C@@H](CC(C)C)C(=O)N[C@@H](CC(C)C)C(=O)N[C@@H](C)C(=O)N[C@@H](CCC(N)=O)C(=O)N[C@@H](CCCCN)C(=O)NCC(=O)N[C@@H](CCCCN)C(=O)N[C@@H](CCCCN)C(=O)N[C@@H](CC(N)=O)C(=O)N[C@@H](CC(=O)O)C(=O)N[C@@H](Cc1c[nH]c2ccccc12)C(=O)O)C(C)C)C(=O)O)C(=O)O
B5: AT549 (peptide)
peptide: EGTFISDYSIAMDKIHQK([AEEA-AEEA-γGlu-C18 diacid])DFVNWLLAQKGKKNDW-NH2
modifications: N-terminus assumed
SMILES: CC[C@H](C)[C@H](NC(=O)[C@H](CO)NC(=O)[C@H](Cc1ccc(O)cc1)NC(=O)[C@H](CC(=O)O)NC(=O)[C@H](CO)NC(=O)[C@@H](NC(=O)[C@H](Cc1ccccc1)NC(=O)[C@@H](NC(=O)CNC(=O)[C@@H](N)CCC(=O)O)[C@@H](C)O)[C@@H](C)CC)C(=O)N[C@@H](C)C(=O)N[C@@H](CCSC)C(=O)N[C@@H](CC(=O)O)C(=O)N[C@@H](CCCCN)C(=O)N[C@H](C(=O)N[C@@H](Cc1c[nH]cn1)C(=O)N[C@@H](CCC(N)=O)C(=O)N[C@@H](CCCCNC(=O)COCCOCCNC(=O)COCCOCCNC(=O)CC[C@H](NC(=O)CCCCCCCCCCCCCCCCC(=O)O)C(=O)O)C(=O)N[C@@H](CC(=O)O)C(=O)N[C@@H](Cc1ccccc1)C(=O)N[C@H](C(=O)N[C@@H](CC(N)=O)C(=O)N[C@@H](Cc1c[nH]c2ccccc12)C(=O)N[C@@H](CC(C)C)C(=O)N[C@@H](CC(C)C)C(=O)N[C@@H](C)C(=O)N[C@@H](CCC(N)=O)C(=O)N[C@@H](CCCCN)C(=O)NCC(=O)N[C@@H](CCCCN)C(=O)N[C@@H](CCCCN)C(=O)N[C@@H](CC(N)=O)C(=O)N[C@@H](CC(=O)O)C(=O)N[C@@H](Cc1c[nH]c2ccccc12)C(N)=O)C(C)C)[C@@H](C)CC

This experiment has as its target T1, human GIP receptor (human, UniProt P48546 22-466).
T1 sequence (looked up): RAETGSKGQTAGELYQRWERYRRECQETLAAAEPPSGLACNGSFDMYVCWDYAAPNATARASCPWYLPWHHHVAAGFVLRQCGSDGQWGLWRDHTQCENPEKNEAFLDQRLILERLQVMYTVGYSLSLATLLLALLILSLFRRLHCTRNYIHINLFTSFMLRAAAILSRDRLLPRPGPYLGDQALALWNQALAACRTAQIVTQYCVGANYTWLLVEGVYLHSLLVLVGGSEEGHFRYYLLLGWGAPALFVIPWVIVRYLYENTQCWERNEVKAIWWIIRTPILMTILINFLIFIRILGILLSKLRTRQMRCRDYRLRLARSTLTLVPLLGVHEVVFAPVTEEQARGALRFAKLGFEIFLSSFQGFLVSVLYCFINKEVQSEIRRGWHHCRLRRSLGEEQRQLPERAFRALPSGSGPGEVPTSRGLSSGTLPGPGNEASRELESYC
In words: cell-based or functional assay.
Consider B1, for which the “cAMP agonism % Emax” value amounted to 0%, the “cAMP antagonism” value came out at 12.6 nM, the “cAMP antagonism % inhib” value amounted to 95% and the “cAMP antagonism pIC50” value came to 7.9.
As for TFISDYK([AEEA-AEEA-γGlu-C18])IAMDKIHQQDFVNWLLAQKGKKNDW-OH [AT560], the “cAMP antagonism” value came to 23.3 nM, the “cAMP antagonism % inhib” value came out at 100% and the “cAMP antagonism pIC50” value came out at 7.6.
Consider B2, for which the “cAMP agonism % Emax” value stood at 0%, the “cAMP antagonism” value came to 126 nM, the “cAMP antagonism % inhib” value came to 86% and the “cAMP antagonism pIC50” value is 6.9.
Take TFISDYK([γGlu-γGlu-C18])IAMDKIHQQDFVNWLLAQKGKKNDW-OH [AT561]: the “cAMP agonism % Emax” value worked out at 0%, the “cAMP antagonism” value came to 11.2 nM, the “cAMP antagonism % inhib” value turned out to be 97% and the “cAMP antagonism pIC50” value came to 8.
Turning to B3, the “cAMP agonism % Emax” value turned out to be 0%, the “cAMP antagonism” value came to 3.98 nM, the “cAMP antagonism % inhib” value is 82% and the “cAMP antagonism pIC50” value was 8.4.
The like results for B4 were, in that order, 0%, 7.94 nM, 100% and 8.1.
On to B5, for which the “cAMP agonism % Emax” value is 0%, the “cAMP antagonism” value was found to be 200 nM, the “cAMP antagonism % inhib” value stood at 80% and the “cAMP antagonism pIC50” value amounted to 6.7.
